Experimental data as given in patent US20240317826A1, “COMPOSITIONS AND METHODS FOR TREATING AND/OR I[…] AGENT FOR TREATING HIV-1 INFECTIONS” (priority 2021, published 2024).
Where no end group is shown, it is not given here.

Legend:
IN-TAR RNA interaction = biological target: T1, IN-TAR RNA interaction (Human immunodeficiency virus type 1 group M subtype B, UniProt P04585); assay: Alpha interaction assay: effect of stapled peptides on IN-TAR RNA interaction; format: binding, HIV-1; settings: in vitro
T1 construct: made in house; host or cells: bacteria (E. coli inferred from the pGEX vector)
Experimental: (§1) FIG. 8A-FIG. 8D show quantitative alpha interaction assay to determine the effect of stapled peptides on the interaction of IN and IN-CTD with INI1 and INI1183-304 or TAR RNA. […] Fixed concentrations of GST-IN, 6His-INI1, and TAR RNA were incubated with increasing concentration of stapled peptides and the interaction was detected as Alpha Score. The IC50 values were determined by fitting the data to a four-parameter dose-response curve using Graph Pad prism. All the graphs represent the average of three independent experiments (Mean+/−SEM).
(§2) AlphaScreen proximity assay to detect the protein-protein and protein-RNA interactions. AlphaScreen assay was carried out using PerkinElmer Alpha-Lisa-6His Acceptor beads (Catalogue #AL128C), Alpha-Screen-GST donor beads (Catalogue #6765300), GST-tagged and His-tagged proteins for protein-protein interactions; and Alpha-Screen Streptavidin donor beads (Catalogue #6760002 S), Alpha-Lisa-GST acceptor beads (Catalogue #AL110C), Biotin-labeled RNA and GST-tagged proteins for protein-RNA interactions. The reaction was carried out according to the manufacturer's protocol in a reaction buffer contacting (25 mM HEPES pH 7.4, 100 mM NaCl (or 500 mM NaCl), 1 mM DTT, 1 mM MgCl2 and BSA 1 mg ml/ml). The mixture of proteins or protein and RNA were incubated for 1 hr at room temperate with shaking in a multi micro-plate shaker and then 20 ag ml/ml accepter beads were added and incubated for additional 1 h with shaking. Finally, 20 ag ml^−1 of donor beads were added and further incubated for 1 hr. The Alpha score readings were measured using Alpha-compatible Envision 2105 multi-plate reader (Perkin-Elmer). All the experiments related to this method were carried out 3 to 5 times and data were analyzed by using Graph Pad Prism 9 version 9.0.0 (GraphPad Software, CA). The RNA sequences used in this assay are listed in the Table 6d and were obtained from Integrated DNA technology.
(§3) These peptides were tested for their ability to disrupt the interaction between IN-INI1 and IN-TAR RNA in vitro.

IN-INI1 interaction = biological target: T2, IN-INI1 interaction (Human immunodeficiency virus type 1 group M subtype B, UniProt P04585); assay: Alpha interaction assay: effect of stapled peptides on IN-INI1 interaction; format: binding, HIV-1; settings: in vitro
T2 construct: made in house; host or cells: bacteria (E. coli inferred from the pGEX vector)
Experimental: as §1, §2, §3

Substance	inhibition of IN-TAR RNA interactions (IN-TAR RNA interaction)	inhibition of IN-INI1 interactions (IN-INI1 interaction)	IC50, inhibition of IN-TAR RNA interactions (IN-TAR RNA interaction)	IC50, inhibition of IN-INI1 interactions (IN-INI1 interaction)
lys-Leu-Met-Thr-Pro-Glu-Met-Phe-Ser-Glu-Ile-Leu-Cys-Asp-Leu-Asn (KLMTPEMFSEILCDLN; not fully specified; printed as lys-Leu-Met-Thr-Pro-Glu-Met-Phe-Ser-Glu-Ile-Leu-Cys-Asp-Leu-Asn) [SP80, Linear peptide (without stapling) derived from Alpha helix 1 of INI1 Rpt-1 domain]	did not inhibit	did not inhibit		
lys-Leu-Met-Thr-Pro-Glu-R8-Met-Phe-Glu-Ile-Leu-S5-Cys-Asp-Leu-Asn [SP39]			low nanomolar	low nanomolar
